Source: patent US20260258149A1

Biological target: BSA-STn
Test: SPR, BSA-STn-serine immobilised on the chip as ligand, antibody injected as analyte

Row | Binder | Kd [nM] | koff [s⁻¹] | kon [M⁻¹ s⁻¹]
1 | humanized anti-STn antibody clone V3 (antibody, V domains shown) VH: QVQLQESGPGLVKPSQTLSLTCSVIGYSITSGYYWNWIRQPPGKGLEWIGSINYDGSNIYNPSLKDRVTISRDTSKNQFSLKLSSVTAADTAVYYCARGGDYWGQGTTVTVSS VL: EIVLTQSPATLSLSPGERATLSCSASSSVSYMHWFQQKPGQAPRRWIYDTSKRATGVPARFSGSGSGTDYTLTISSLEPEDFAAYYCQQWSSDPPMLTFGGGTKLEIK | 33.2 | 0.00568 | 171000
2 | humanized anti-STn antibody clone V2 (antibody, V domains shown) VH: QVQLQESGPGLVKPSQTLSLTCSVIGYSITSGYYWNWIRQPPGKGLEWIGSINYDGSNIYNPSLKDRVTISRDTSKNQFSLKLSSVTAADTAVYYCARGGDYWGQGTTVTVSS VL: DIVLTQSPAILSLSPGERATLSCSASSSVSYMHWFQQKSGQAPKRWIYDTSKLASGVPARFSGSGSGTDYTLTISSLEAEDFAAYYCQQWSSDPPMLTFGGGTKLEIK | 39.4 | 0.00519 | 132000
3 | humanized anti-STn antibody clone V1 (antibody, V domains shown) VH: QVQLQESGPGLVKPSQTLSLTCTVIGYSITSGYYWNWIRQPPGKGLEWIGSINYDGSNIYNPSLKSRVTISRDTSKNQFSLKLSSVTAADTAVYYCARGGDYWGQGTTVTVSS VL: EIVLTQSPATLSLSPGERATLSCSASSSVSYMHWFQQKPGQAPRRWIYDTSKRATGVPARFSGSGSGTDYTLTISSLEPEDFAAYYCQQWSSDPPMLTFGGGTKLEIK | 31.7 | 0.00553 | 174000
